Test results published in patent publication US20170340747A1, “PROCESS FOR PRODUCING IRON (III) CASEIN N-ACETYL-ASPARTYLATED COMPLEXES AND USE THEREOF IN PHARMACEUTICAL COMPOSITIONS” (priority 2014, published 2017).

What was measured:
[1] = Solubility of the dried iron (III) casein N-acetyl-L-aspartylated complex; type: physicochemical
Method: (§1) The moist pure product obtained in the previous stage is dried under vacuum, at a temperature increasing from 60° C. to 70° C., for an overall period of 24 hours. After the desiccation process, 6.5 g of pure iron (III) casein N-acetyl-L-aspartylated complex are obtained, with a water content <5 wt % (Karl Fisher), having the following chemical and physicochemical characteristics:
as §1, with “6.6” for “6.5”, “casein:” for “casein”, “content<5” for “content <5”
as §1, with “6.4” for “6.5”, “content<5” for “content <5”, “characteristics: […]” for “characteristics:”

dogs = details: complex containing 5% iron; cited from earlier work
rats = details: complex containing 5% iron; cited from earlier work
[2] = tested on: patients with iron deficiency anaemia; details: cited from earlier work

Substance: iron (III) casein: N-acetyl-L-aspartylated complex [Example 2]
- Solubility [1]: Soluble in NaOH pH = 8

Substance: iron-protein succinylate [iron succinyl casein complex]
- Gastrointestinal tolerability (dogs): better gastrointestinal tolerability
- Gastrointestinal tolerability (rats): better gastrointestinal tolerability

Substance: ferro-N-acetyl-L-aspartylated casein
- Solubility at alkaline pH values [1]: completely soluble at alkaline pH values

Substance: iron (III) casein N-acetyl-L-aspartylated complex [Example 3]
- Solubility [1]: Soluble in NaOH pH = 8

Substance: iron-acetyl-aspartylated casein [Fe-ASP]
- Changes in clinical and haematological profiles ([2]; controlled clinical trials, compared with iron protein succinylate (IPS)): virtually identical to those seen with iron protein succinylate (IPS)
- Safety ([2]; human, in vivo): No safety considerations were raised
- Clinical and haematological parameters after treatment ([2]; open clinical trials, all categories of patients with iron deficiency anaemia): highly significant improvements
